{
  "source": "patent US20250129166A1",
  "biological_target": "full length human PSGL-1 (SEQ ID NO: 3) expressed on heparan sulfate-mutant CHO cells (human) (UniProt Q14242)",
  "sequence (Q14242 42-412 limits assumed, change not shown)": "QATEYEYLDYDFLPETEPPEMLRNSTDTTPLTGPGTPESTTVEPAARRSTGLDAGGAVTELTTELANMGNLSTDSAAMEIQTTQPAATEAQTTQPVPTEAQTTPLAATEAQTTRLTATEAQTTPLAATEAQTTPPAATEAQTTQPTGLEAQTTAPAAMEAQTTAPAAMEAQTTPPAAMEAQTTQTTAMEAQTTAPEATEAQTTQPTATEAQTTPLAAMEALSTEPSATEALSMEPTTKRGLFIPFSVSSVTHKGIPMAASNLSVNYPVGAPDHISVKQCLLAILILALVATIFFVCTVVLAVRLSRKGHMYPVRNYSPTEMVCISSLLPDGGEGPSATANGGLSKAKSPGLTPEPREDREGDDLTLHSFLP",
  "assay": "blocking of VISTA-Fc binding to CHO-PSGL-1 cells (the blocked ligand is VISTA-Fc); cells pre-incubated with antibody and read by flow cytometry or HTRF",
  "data": [
    {"substance": "anti-PSGL-1 antibody KPL-1 (BD Biosciences or Biolegend)", "values": [
      {"measurement": "IC50 (read off the curve)", "value": 0.06, "unit": "µg/mL"}
    ]}
  ]
}
